# Test results published in the DeepSol protein solubility set.
# Assay: soluble on expression in E. coli; label from the status in PepcDB or PDB records
row,Sequence,soluble on expression in E. coli
1,MAERKYFGTDGVRGKVGQFPITPDFALKLGWAAGKILATQGTKQVLIGKDTRISGYMLESALEAGLAAAGLSAAFVGPMPTPAVAYLTRTFRAEAGIVISASHNPYYDNGIKFFSANGEKLPDEVEEAIEALLDQPMDYVESDQLGKAIRINDAAGRYIEFCKGTFPADASLKGYKIVVDCAHGATYHIAPNVMRELGAEVIEIGTHPNGLNINDKCGATDISALQQAVLTSKADLGVAYDGDGDRIIMVDHLGNKVDGDQILFIIAREALRSGKLKGGVVGTLMSNMGLEIALKHLAIPFTRANVGDRYVLEQLKEKNWKLGGENSGHIIVLDKNTTGDGIIASLEVLAAMEAHKMSLNDLTHAVPLFPQVLLNVRFDGGNNPLENAAVKALAKDIETRLVGKGRILLRKSGTEPLIRVMVECEDAVLAQQYAEEIVSAIQNH,not soluble
2,MAESLITKKAIAGGLMELCQHKRFEKISIADITNICGLNRQTFYYHFTDKYDLLTWTYENDFFHCLADGITLENWDKHVLKMLESIKENADFYKNTVSADASILSFCFSKLTNSLFMDLFEKIDTNGAVNEADRVFYAEFFSYGCSGVLIKWITRGFKEAPETIANQLFRLAKDTEFLANSMYRENLEHHHHHH,soluble
3,MAFANFRRILRLSTFEKRKSREYEHVRRDLDPNEVWEIVGELGDGAFGKVYKAKNKETGALAAAKVIETKSEEELEDYIVEIEILATCDHPYIVKLLGAYYHDGKLWIMIEFCPGGAVDAIMLELDRGLTEPQIQVVCRQMLEALNFLHSKRIIHRDLKAGNVLMTLEGDIRLADFGVSAKNLKTLQKRDSFIGTPYWMAPEVVMCETMKDTPYDYKADIWSLGITLIEMAQIEPPHHELNPMRVLLKIAKSDPPTLLTPSKWSVEFRDFLKIALDKNPETRPSAAQLLEHPFVSSITSNKALRELVAEAKAEVMEEIEDGRDEGEEEDAVDAASTLENHTQNSSEVSPPSLNADKPLEESPSTPLAPSQSQDSVNEPCSQPSGDRSLQTTSPPVVAPGNENGLAVPVPLRKSRPVSMDARIQVAQEKQVAEQGGDLSPAANRSQKASQSRPNSSALETLGGEKLANGSLEPPAQAAPGPSKRDSDCSSLCTSESMDYGTNLSTDLSLNKEMGSLSIKDPKLYKKTLKRTRKFVVDGVEVSITTSKIISEDEKKDEEMRFLRRQELRELRLLQKEEHRNQTQLSNKHELQLEQMHKRFEQEINAKKKFFDTELENLERQQKQQVEKMEQDHAVRRREEARRIRLEQDRDYTRFQEQLKLMKKEVKNEVEKLPRQQRKESMKQKMEEHTQKKQLLDRDFVAKQKEDLELAMKRLTTDNRREICDKERECLMKKQELLRDREAALWEMEEHQLQERHQLVKQQLKDQYFLQRHELLRKHEKEREQMQRYNQRMIEQLKVRQQQEKARLPKIQRSEGKTRMAMYKKSLHINGGGSAAEQREKIKQFSQQEEKRQKSERLQQQQKHENQMRDMLAQCESNMSELQQLQNEKCHLLVEHETQKLKALDESHNQNLKEWRDKLRPRKKALEEDLNQKKREQEMFFKLSEEAECPNPSTPSKAAKFFPYSSADAS,soluble
4,MAFFRLAALLWLGMLMSPVQAQSLSLQVLDAVVKDAVLADAEVQLGQASGRTDAQGRVTLEAADSPGSELLIRKLGYADLRAKCPCQGLSYAMSPVLKDPQSLRVVLSWSAPGEDLDAHLSYPHRLLYYATGTGPGARMNVDSTDSRGPETLTIEQPVPGDAYVYAVHDFTNGNNPESLRLGRSQAQVFVYKGPTLMRSYRVPQNRQGNLWVVFRLTANGQLQDIDRVLQGNEEVESRMSDLDPLLLANGKPIDEVLARDEGPVDAKSLNQKGEASYRKGDVGSAGIYYREAIELDPGFAQAYSNLALSNRKNSRPDEAVAADRQAIALASGPSAPTIRASAYYDMGRIYEDAGQLVTALEHYRKAREQKANPVYDKAIERLQNRLEHHHHHH,not soluble
5,MAFKGYPVIDKDGNIYAGNQDGQLYAYTSTGSLKWTFPLNGFSSSSPAIDHNGNIYIGSGSGELFSISKNGDMNWSFYTDGPVRTAPLIDAKGTVYFGSDDMKVYAADANGNELWSYQTDSNVVSSPQLAEDGTLEHHHHHH,not soluble
6,MAFNIESLLEKKSNPVEEGNDFEEENDSEKNGEEDEEEEEKNVIDGWTNMATSQLAMFAIANDLRTPTLVELQMLLGVSARKHDYKRSRKSVCERKPRQAYSARQLDRLETEFQTDKYLSVNKRIQLSQTLNLTETQIKTWFQNRRTKWKKQLTSSIRQMVKDAPTSTSVGVPFQSLLTPPTPPTTLACHVNSLFACEQ,not soluble
7,MAGDPMGGAGLDNAQNVRNQTQNQTKPIHVSDRNEAFNRHNENEQFGYVRYQKEQFDGEQQKTPVMNREETAHMISSLTVQLPHIQDAATLVTDREALVVYKTDSKNRELTADQVKKTAASVIPRYYHVYISDNPNHMQSVENYSNLGSGSRDIREIMSGTIQEMKTSPQGSPVSENENANGETRQDMKIDRNDKNARLEHHHHHH,soluble
8,MAGDPMGNNNSTKESTHDNHSDSSTHEEMDHSGSADVPEGLQESKNPKYKVGSQVIINTSHMKGMKGAEATVTGAYDTTAYVVSYTPTNGGQRVDHHKWVIQEEIKDAGDKTLQPGDQVILEASHMKGMKGATAEIDSAEKTTVYMVDYTSTTSGEKVKNHKWVTEDELSAKLEHHHHHH,soluble
9,MAGDPMKKLVTATTLTAGIGTALVGQAHHADAAENYTNYNNYNYNTTQTTTTTTTTTTTSSISHSGNLYTAGQCTWYVYDKVGGEIGSTWGNANNWAAAAQGAGFTVNHTPSKGAILQSSEGPFGHVAYVESVNSDGSVTISEMNYSGGPFSVSSRTISASEAGNYNYIHILEHHHHHH,not soluble
10,MAGDPMRTYENKEELKAEIEKTFEKYILEFDNIPENLKDKRADEVDRTPAENLAYQVGWTNLVLKWEEDERKGLQVKTPSDKFKWNQLGELYQWFTDTYAHLSLQELKAKLNENINSISAMIDSLSEEELFEPHMRKWADEATKTATWEVYKFIHVNTVAPFGTFRTKIRKWKKIVLLEHHHHHH,soluble
11,MAGDPMVLKRIRDMFVASVHEGLDKMENPKVMLNQYVRDMESDIAKAKQTIVKQHTIAYQFKKKYEEAAEVAGKRKNQAQLAFDAGEEELAKKALTEMKYLEGKAAEHKASYEQANSQLADLKEQLAALETKLQDVKDKKQALIARANAAKAKEHMNTTFDKIDSESAYREFLRIENRIEEMEIRANYSKSAEAGTELTRKEFADDVEAEIEKMRTLSLQKSDQTKAANELEHHHHHH,soluble
12,MAGLTRALVARHALGRAEAYDAALLDVAQDHLLYLLSQTVQFGDNRLVFKGGTSLRKCRLGNVGRFSTDLDFSAPDDEVVLEVCELIDGARVGGFEFGVQSTRGDGRHWQLRVRHTELGEPRIVASVEFARRPLALPSELLAFIQLPIHKAYGFGLPTLPVVAEAEACAEKLARYRRVALARDLYDLNHFASRTIDEPLVRRLWVLKVWGDVVDDRRGTRPLRVEDVLAARSEHDFQPDSIGVLTRPVAMAAWEARVRKRFAFLTDLDADEQRWAACDERHRREVENALAVLRS,soluble
13,MAGSGVAKQIFALDFEIFGRVQGVFFRKHTSHEAKRLGVRGWCMNTRDGTVKGQLEAPMMNLMEMKHWLENNRIPNAKVSKAEFSQIQEIEDYTFTSFDIKH,soluble
14,MAGWRTVVVNTHSKLSYKNNHLIFKDAYKTELIHLSEIDILLLETTDIVLSTMLVKRLVDENVLVIFCDDKRLPTAMLMPFYGRHDSSLQLGKQMSWSETVKSQVWTTIIAQKILNQSCYLGACSYFEKSQSIMDLYHGLENFDPSNREGHAARIYFNTLFGNDFSRDLEHPINAGLDYGYTLLLSMFAREVVVSGCMTQFGLKHANQFNQFNFASDIMEPFRPLVDKIVYENRNQPFPKIKRELFTLFSDTFSYNGKEMYLTNIISDYTKKVVKALNNEGKGVPEFRI,not soluble
15,MAHHHHHHMAALQHVNSATEITPLLACGGDYVKNGTQTLSIPSVYATLDALESLWQAQREKQHLSVRGRAQGLRHYHAVYEASARCVPLSLTRWEQWLAGLSEQGARSTVGACPDELSSSSSPHVQRVQKELVDSYWHLYRRLCWGSSGAAKAGLAAVLEHTDSAASGLPSVMATGAASLLAKQEAALAKPLQAFARLSADRHTCSPITR,not soluble
